Measured values: article PMC2173746

Molecular target: LSm7 (UniProt Q9UK45)
Assay: two-hybrid

Chain of UniProt Q9UK45 (Q9UK45 whole entry): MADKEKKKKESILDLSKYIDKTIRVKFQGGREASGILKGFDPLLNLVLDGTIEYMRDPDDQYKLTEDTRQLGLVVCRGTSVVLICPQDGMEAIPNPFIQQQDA

- fold reduction of the two-hybrid interaction against full-length SART3/p110: 2 fold
Substance: SART3/p110 with the CT10 domain deleted (from UniProt Q15020 1-950) (domain or fragment)
